How the values were obtained:
[1] = target: serum fucosylated PSA (prostate specific antigen) (human) (UniProt P07288); assay: sandwich ELISA, anti-PSA antibody capture, biotin-lectin detection, pH 9.6; serum of Healthy 1
[2] = target: serum fucosylated PSA (prostate specific antigen) (human) (UniProt P07288); assay: sandwich ELISA, anti-PSA antibody capture, biotin-lectin detection, pH 9.6; serum of Healthy 2
[3] = target: serum fucosylated PSA (prostate specific antigen) (human) (UniProt P07288); assay: sandwich ELISA, anti-PSA antibody capture, biotin-lectin detection, pH 9.6; serum of Healthy 3
[4] = target: serum fucosylated PSA (prostate specific antigen) (human) (UniProt P07288); assay: sandwich ELISA, anti-PSA antibody capture, biotin-lectin detection, pH 9.6; serum of Healthy 4
[5] = target: serum fucosylated PSA (prostate specific antigen) (human) (UniProt P07288); assay: sandwich ELISA, anti-PSA antibody capture, biotin-lectin detection, pH 9.6; serum of Healthy 5
[6] = target: serum fucosylated PSA (prostate specific antigen) (human) (UniProt P07288); assay: sandwich ELISA, anti-PSA antibody capture, biotin-lectin detection, pH 9.6; serum of Healthy 6
[7] = target: serum fucosylated PSA (prostate specific antigen) (human) (UniProt P07288); assay: sandwich ELISA, anti-PSA antibody capture, biotin-lectin detection, pH 9.6; serum of Healthy 7
[8] = target: serum fucosylated PSA (prostate specific antigen) (human) (UniProt P07288); assay: sandwich ELISA, anti-PSA antibody capture, biotin-lectin detection, pH 9.6; sera of subgroup GS6, n=2
[9] = target: serum fucosylated PSA (prostate specific antigen) (human) (UniProt P07288); assay: sandwich ELISA, anti-PSA antibody capture, biotin-lectin detection, pH 9.6; sera of subgroup GS7, n=2
[10] = target: serum fucosylated PSA (prostate specific antigen) (human) (UniProt P07288); assay: sandwich ELISA, anti-PSA antibody capture, biotin-lectin detection, pH 9.6; serum of Prostate cancer 1 (GS 4)
[11] = target: serum fucosylated PSA (prostate specific antigen) (human) (UniProt P07288); assay: sandwich ELISA, anti-PSA antibody capture, biotin-lectin detection, pH 9.6; serum of Prostate cancer 2 (GS 5)
[12] = target: serum fucosylated PSA (prostate specific antigen) (human) (UniProt P07288); assay: sandwich ELISA, anti-PSA antibody capture, biotin-lectin detection, pH 9.6; serum of Prostate cancer 3 (GS 6)
[13] = target: serum fucosylated PSA (prostate specific antigen) (human) (UniProt P07288); assay: sandwich ELISA, anti-PSA antibody capture, biotin-lectin detection, pH 9.6; serum of Prostate cancer 4 (GS 6)
[14] = target: serum fucosylated PSA (prostate specific antigen) (human) (UniProt P07288); assay: sandwich ELISA, anti-PSA antibody capture, biotin-lectin detection, pH 9.6; serum of Prostate cancer 5 (GS 7)
[15] = target: serum fucosylated PSA (prostate specific antigen) (human) (UniProt P07288); assay: sandwich ELISA, anti-PSA antibody capture, biotin-lectin detection, pH 9.6; serum of Prostate cancer 6 (GS 7)
[16] = target: serum fucosylated PSA (prostate specific antigen) (human) (UniProt P07288); assay: sandwich ELISA, anti-PSA antibody capture, biotin-lectin detection, pH 9.6; serum of Prostate cancer 7 (GS 8)
[17] = target: serum fucosylated PSA (prostate specific antigen) (human) (UniProt P07288); assay: sandwich ELISA, anti-PSA antibody capture, biotin-lectin detection, pH 9.6; serum of Prostate cancer 8 (GS 8)
[18] = target: serum fucosylated PSA (prostate specific antigen) (human) (UniProt P07288); assay: sandwich ELISA, anti-PSA antibody capture, biotin-lectin detection, pH 9.6; serum of Prostate cancer 9 (GS 8)
[19] = target: serum fucosylated PSA (prostate specific antigen) (human) (UniProt P07288); assay: sandwich ELISA, anti-PSA antibody capture, biotin-lectin detection, pH 9.6; sera of subgroup GS8 or more, n=3
[20] = target: serum fucosylated PSA (prostate specific antigen) (human) (UniProt P07288); assay: sandwich ELISA, anti-PSA antibody capture, biotin-lectin detection, lectin reaction pH 7.4; serum of Healthy 1
[21] = target: serum fucosylated PSA (prostate specific antigen) (human) (UniProt P07288); assay: sandwich ELISA, anti-PSA antibody capture, biotin-lectin detection, lectin reaction pH 9.6; serum of Healthy 1
[22] = target: serum fucosylated PSA (prostate specific antigen) (human) (UniProt P07288); assay: sandwich ELISA, anti-PSA antibody capture, biotin-lectin detection, pH 9.6; subject samples B, subgroup GS6, n=9
[23] = target: serum fucosylated PSA (prostate specific antigen) (human) (UniProt P07288); assay: sandwich ELISA, anti-PSA antibody capture, biotin-lectin detection, pH 9.6; subject samples B, subgroup GS7, n=11
[24] = target: serum fucosylated PSA (prostate specific antigen) (human) (UniProt P07288); assay: sandwich ELISA, anti-PSA antibody capture, biotin-lectin detection, pH 9.6; sera of the healthy person group (n=7)
[25] = target: serum fucosylated PSA (prostate specific antigen) (human) (UniProt P07288); assay: sandwich ELISA, anti-PSA antibody capture, biotin-lectin detection, pH 9.6; subject samples B, subgroup GS8-9, n=6
[26] = target: serum fucosylated PSA (prostate specific antigen) (human) (UniProt P07288); assay: sandwich ELISA, anti-PSA antibody capture, biotin-lectin detection, pH 9.6; subject samples B, subgroup Negative, n=9
[27] = target: serum fucosylated PSA (prostate specific antigen) (human) (UniProt P07288); assay: sandwich ELISA, anti-PSA antibody capture, biotin-lectin detection, pH 9.6; sera of subgroup Negative (GS5 or less), n=2
[28] = target: serum fucosylated PSA (prostate specific antigen) (human) (UniProt P07288); assay: sandwich ELISA, anti-PSA antibody capture, biotin-lectin detection, pH 9.6; sera of the prostate cancer patient group (n=9)
[29] = target: serum fucosylated PSA (prostate specific antigen) (human) (UniProt P07288); assay: sandwich ELISA, anti-PSA antibody capture, biotin-lectin detection, lectin reaction pH 7.4; serum of Prostate cancer 4 (GS6)
[30] = target: serum fucosylated PSA (prostate specific antigen) (human) (UniProt P07288); assay: sandwich ELISA, anti-PSA antibody capture, biotin-lectin detection, lectin reaction pH 9.6; serum of Prostate cancer 4 (GS6)

- PhoSL reaction value [1]: 51.9 U/mL
- PhoSL reaction value [2]: 55.9 U/mL
- PhoSL reaction value [3]: 63.9 U/mL
- PhoSL reaction value [4]: 74.9 U/mL
- PhoSL reaction value [5]: 55.8 U/mL
- PhoSL reaction value [6]: 39.7 U/mL
- PhoSL reaction value [7]: 59 U/mL
- PhoSL reaction value (mean value) [8]: 142 U/mL
- PhoSL reaction value (median value) [8]: 142 U/mL
- PhoSL reaction value (mean value) [9]: 142 U/mL
- PhoSL reaction value (median value) [9]: 142 U/mL
- PhoSL reaction value [10]: 116 U/mL
- PhoSL reaction value [11]: 117 U/mL
- PhoSL reaction value [12]: 104 U/mL
- PhoSL reaction value [13]: 179 U/mL
- PhoSL reaction value [14]: 116 U/mL
- PhoSL reaction value [15]: 168 U/mL
- PhoSL reaction value [16]: 126 U/mL
- PhoSL reaction value [17]: 130 U/mL
- PhoSL reaction value [18]: 251 U/mL
- PhoSL reaction value (mean value) [19]: 130 U/mL
- PhoSL reaction value (median value) [19]: 169 U/mL
- PhoSL reaction value [20]: 35.8 U/mL
- PhoSL reaction value [21]: 51.9 U/mL
- PhoSL reaction value (mean value) [22]: 182 U/mL
- PhoSL reaction value (median value) [22]: 189 U/mL
- PhoSL reaction value (mean value) [23]: 120 U/mL
- PhoSL reaction value (median value) [23]: 211 U/mL
- PhoSL reaction value (average value) [24]: 57.3 U/mL
- PhoSL reaction value (median value) [24]: 55.9 U/mL
- PhoSL reaction value (mean value) [25]: 233 U/mL
- PhoSL reaction value (median value) [25]: 240 U/mL
- PhoSL reaction value (mean value) [26]: 204 U/mL
- PhoSL reaction value (median value) [26]: 178 U/mL
- PhoSL reaction value (mean value) [27]: 116 U/mL
- PhoSL reaction value (median value) [27]: 116 U/mL
- PhoSL reaction value (average value) [28]: 145 U/mL
- PhoSL reaction value (median value) [28]: 126 U/mL
- PhoSL reaction value [29]: 108 U/mL
- PhoSL reaction value [30]: 179 U/mL
Substance: Pholiota squarrosa lectin (PhoSL), biotin-labeled

Reference: patent publication US20200264182A1, “METHOD FOR DETECTING PROSTATE CANCER” (J-OIL MILLS, INC., priority 2017, published 2020)
